Measured values from paper PMC6895265.

Biological target: TCF4 bHLH domain (Homo sapiens, UniProt P15884 565-624)
Test: ITC

Chain of TCF4 bHLH domain (P15884 565-624): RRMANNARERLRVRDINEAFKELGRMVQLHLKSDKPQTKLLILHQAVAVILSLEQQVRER

B1: 12-mer TA-flanked, X=H (dsDNA)
DNA 1: ATACACGTGTAT
DNA 2: ATACACGTGTAT
modifications: 5hmC at C4 and C6 of both strands
binding result: no binding

B2: 12-mer TA-flanked, X=M (dsDNA)
DNA 1: ATACACGTGTAT
DNA 2: ATACACGTGTAT
modifications: 5mC at C4 and C6 of both strands
binding result: no binding
